Measured values: the DeepSol protein solubility set

Assay: soluble on expression in E. coli; label from the status in PepcDB or PDB records

In the case of “MRIEEFDYELPEELIAKYPAVPRHSARLMVLNRKDQSIKHDTFINLPDYLEEGDLLVFNNTKVIPARLYGRKPTGGRVEVVLTDFIKPDEWKALIGGKKIRPGLVIEVAPDFKVEVLEHIEEGKFRVKLLGEEPLKLIDKYGHIPIPPYLKREEEPIDRVYYQTIFAKEKGAVASPTASLHFSEELLEKLKEKGINFAFITLHVSYGTFKPVKVERVEEHRVDPEYVKIPKETVEKIKETKEKGKRVVAVGTTVVRALETKPFEPFEGWTDLYIYPGFKFKVVDAMITNFHLPRSSLLILVSAFAGREFILKAYREAVEKRYRFYSYGDGMLIL”, the “soluble on expression in E. coli” value is reported as “soluble”.
For “MGSDKIHHHHHHMQHIIKTALQQTFNYKTNKSIYNILVGKKSHQTFFDACSQQQLSLYHSLPLLKYPSFELFLEKINEFNAEMEIMLHPRYTFESMGQTFQAIQLLVQTMSNTKQHVFHFVPISQNNKIQETVKIVYNYIKENQLQIDFENELHNLFKAITLKGPCYLHYYLQGYDEPMYTRQQVSLIEKLSQQQLFEYEMNNLVTMMFELESGEYTILSKIIMKPTLLNQTYITYTKLLEQFTMEDIAAQQQVKINTIEDHVLEILIKGYMSNYDDYVELEDQLQFLNFYQQHRGERLKFYKEQFDTLSYFQLKVLIVGFERGDLNVA”, the “soluble on expression in E. coli” value was “not soluble”.
For “MGSDKIHHHHHHMDISGRDVETRLTLAREFMSGVDELPTVPDIVLRIAGKLNDPDVAIDEVADLLLQDQVLTARVVHLANSPLYSAARPISSIRDAVIYLGLDLLREAIFTCAIVDLFKTGKGPLNRSTLWAHSLGVARIAKLIAERTGFLNPVNVYVAGLLHDVGEVFINFFRGKEFSQVVTLVDEEKITFGQAEERLFGTSHCEVGFALAKRWSLNEFICDTILYHHDIEAVPYKQAAIVAMVAFADEYCTLRRLGFEGHKPVDSVRTLLENHPSWGVIRRSLGGSDFDEKLIVAELDSSIVEIRAAVDELFLL”, the “soluble on expression in E. coli” value was “not soluble”.
For “MGSDKIHHHHHHMPLPENSVVEKNILNPEAVAEALERAMNLANPQTTHAAIAVPTSTVIHKTIEMDADMSDDEREVQIRVDAEQYIPFPLDEVSLDFEVLPDRLANPNRVNVLLVATRTENVETRVEVLELADLNPKLADVESYAVERAFSVFADSLPMGANTIGILDIGHTMTTLSVMQNGKIIYTREQVFGGKQLTLEIQSRYGLSLEEASRAKKDRSLPDDYEIEVLDPFLDAVVQQAARSLQFFFSSSQFNEIDHILLAGGNANIPGLAKLLQQKLGYRVTIANPFLQMGFSPQVDVQKIENDASSLMVACGLALRSFD”, the “soluble on expression in E. coli” value was “not soluble”.
For “VEPVPDTHLRGITCLDHENEKVNMYCVSDDQLICALCKLVGRHRDHQVASLNDRFEKLKQTLEMNLTNLVK”, the “soluble on expression in E. coli” value was “soluble”.
For “MGSDKIHHHHHHMLNWSHLPAIKPKYLAITQFIKQAIQNGDLLPGQRLPAERELATLLHVDRSTVTRALLDLAAVGILVKKRGSGTFVAQLPHVNQLANKVNWQAFLENTTATRHATYQRKLAKARTTATVPLIDAAANELPTNLIPQLGTLTLDWQGFLTAQQQEERTGYLPLMQTINRYHTARQQFTLDRQSLIITGGAQQALLLILNSLLQPGDAVAFVTPSYFSASAVFSAAGVRAYTIPTTTLGLDLTALETAIIKHRIKLLILNPTLQNPTGRILPLAERQAILALCQRYQVAIVEDDVFGWLVDRDIAVPPFKALAPDNVIYISSLSKLLGSNTRIGWIVAPQAIGERIRQVQKNLDLVPSLLAQVMVDHALNSPEFSLGVTQLTTQLAQRRQNVTAILRQLRPDWHFVTPLGGFYLWVTQADRNVFEHLLEQHLLVTPGPIYGADRSAFRFNFAGLDYRQQRLLIQRLS”, the “soluble on expression in E. coli” value was “not soluble”.
In the case of “MDKRLLKRLSAPLLAAALWTIPLHSHADTQPLTSQDTKLLTSQIVDQYAEHIFYNSGAVGMALVVIDNNQVVNRSFGETQPGNNIRPRPDSLIRIASITKLMTSEIMVKLADDGIVKLTDPLKKYAPKGVNVPSYSAKQPIRLLHLASHTSGLPREQPGGPQKRPVFTWPTKDNRWQWLKLAKVTVPPGVKAAYSNLAYDLLADALSRAAGKPYAHLLRDKITAPLGMKNTTLTPTAEQCKRLMIGVGSSRCGNTVAAAGSGGIYSTPEDMQHWMQQFLASDNSAPKRSAKREQALYFQRGDLVSLKGMDVAGQADALGLGWVYMAPKADLPGIMQKTGGGGGFITYMAMVPEKNIGVFVVVTRSQLTKFSNMSDGVNQLVAELVKNH”, the “soluble on expression in E. coli” value is reported as “not soluble”.
For “GPGSMKALVRRFGPEPSVIEECSADQEWEKPCLASTEDTAVAPGDSVKDTRNNLSGSEGLANGRAESSQRAVDVSSFIRLFSVEWCLTEEQQAENSRRLDAFFHPHPAPPSCQPAPLLPSVQTCGETVDPDIWSLPEVSQEELQRWREEKLSLSDRLVWRGRKTIKQVNMRRM”, the “soluble on expression in E. coli” value was “not soluble”.
In the case of “MAHHHHHHMNGTRRFSAAPVNFDRFIALAHSYSRSLSPDRELDQMLRPFQGRAAASTSTATRESTASRVATPQRRHQQMRNGELIDKGSVSTEAEVGKPYWGTTESVAMTRSTTASNTVFSTRAATSTSRTVSGGAAETTSAVSTRSSYLVHSSCPVGEETQELGSGSYSADEVDPLLQAAMQLGSPLYDPVKRQFVCWQLHALEKRPRAAYGDVEGVSCDFCGHTDWLEGVPERATSSPSASATVANADEGKMDTHAPSAAASFTAHARFFYNCSACQVDVCQACLEEVRSDERLHVPCFQCQRCGGYETRQNAPLHRCAEVTRISDDEGSTGVQALLTSPRSNVDASQALPAAPATSSPKYRGVPVGRPVRLGLCRRFQQAVEAVAAPDTEIAAHAGKIANSTPHRKRKRASPEAALVPKQRSGKTTNDTAEVFRVSDVSDKSCRKVRRASASALPKPAPPKQEADDADGDASRALVEAALLPFARYEVHLTPRTAEEVGEVGRIAREQHLVCSPLPSLAKTCVFYFTTRLAAETCVDRATAASLDAILKQSVTPVCRT”, the “soluble on expression in E. coli” value is reported as “not soluble”.
In the case of “MGSDKIHHHHHHMSRVACAYIIRKATGEHECCETLEEHVQRSLEVWLGRLKKCYSSAVNRIIYSQGSQTLASVLGDPVAVAIVLHDIGKAVPAYQKKRIMRGRVQYRHELVSGALSLLAIEKAADMAGIGRNDRGLYVFEVPLAVMMHHESISMGVLAGELGERFVTLSVASLMLEDYYDGELWGLERLARTVKNMGAVGDAVVDVLKILSGSPPSRKEVLIALGRLKAYSLSGDTLSRLSARARVAGILHPLVVADSIAANEGRKRCNGDGGTWIVKRALGRDSQEPAEPCLS”, the “soluble on expression in E. coli” value is reported as “not soluble”.
In the case of “MWDTSKDYRLLVAEKSVELFIRTIEGAKFRGQWDKKRSIQLAKEMIPDIQALRYSYIDPEELVDTPQMKDLKEKAKGIIEALGGEDWHHKFLSQASREDREKVEEQVARIKFFLNTILNLDRRLKLGKINDPVIAVDIVVGEVMSVGKHPSADRLLVTNVNIGERAVTVVTNDLTVKEGNRVAVALLPPRNFFGIVSEGMFLGAGEGVLKNVKGEIGGLPKGIPLEALNETRNAVEAFLKG”, the “soluble on expression in E. coli” value is reported as “soluble”.
With “MKIIDCRNMACPAPVVTTKRALEEAGGETVQVLVDPGAPRENVIRFAENRGFAVSEVEADNGFALTITSPGSAPVEPVRTVAGKGGKTVMLVASDRLGDGPEELGRLLMKNFIITLLDLAELPDRMLFVNTGVLLTTEGSEVLEALQSLGNRGVEVLSCGVCLDFFHRKEKLVAGSVTNMFTIAESLLGAGSVVRLLEHHHHHH” the “soluble on expression in E. coli” value was “soluble”.
With “MTLPSSCAPLTGISRARLPAWALPDGWPTQANGEPLLADLAFRDGRIAALTPTDQPTPGLWDLAGALTLPGLVEPHAHLDKTFTIERCRPAQAGLLPAIHAMHEDRRHWSRADIQRRASAALARAAANGVTHLRSHIDWFNADAPDAWQEIARLDTVGITLERVALVPLPLFRELAQAEAIARTVANSGERCLLGGFIHSSNWDATAMENLLYSAARWDLDLDLHIDEELSEVSQGLTWLADHLSRHPFPGHICCSHGCALAAGSDEQAAPILRQLAAHGVTLIALPMTNLLLQDATFGRTPRQRGITLLHEAQAAGVATLLGCDNVQDAFCPAGSYDPLDTLACGLFSAQLSDLFDQQSRLICDRAALTGSPADAAPFAVGAAASVVIFPGSDRFTWPLNSAARLVVNHGRLTHRRVWQEEMAHES” the “soluble on expression in E. coli” value was “not soluble”.
With “MNGFDGLQEEESSDLKSIQKELAILKLKLSEQESLFNSITENTLAGYWIWDIPLNTMFISAHLKSMLGYADHELENSPETINMLMHPSDLPATYALLSKHVESDGKVPFEIEVRYKHKNGSIVWVICSGNIVTRDENGKPSKMIGCHLDNTELKKAQGVQKYTEELERKNVEMEQFAYVASHDLQEPLNTIQGFIALLSAKLEDAPDPDVTQYLHYINQSTLRMTNLIKGLLEYSRIGKNVVMSKIDCNQVITDVLMDLHIQVEETQADIEVTPLPFVMGYDIELRILFQNLISNALKFSVRRPVIKIYSVVEGGYFKFSVADNGIGIDPQFREKIFKLYQQLHPKSTYEGNGLGLAQCFKIVTELHSGSIWVESNEKEGSIFHFTIPYNA” the “soluble on expression in E. coli” value was “not soluble”.
